This note sets out measurements from patent US20240101668A1.

Residue numbers refer to the chain shown, from its start.

B1: Polypeptide No. 289 (scFv, V domains shown)
VH: QVQLVQSGAEVKKPGASVKVSCKASGYTFTSYGISWVRQAPGQGLEWMGWMNPISGNTDYAPNFQGRVTMTRDTSTSTVYMELSSLRSEDTAVYYCVVERRREVGMDVWGQGTTVTVSS
VL: DIQMTQSPSSLSASVGDRVTITCQASQGITSYLNWYQQKPGKAPKLLIYKASSLESGVPSRFSGSGSGTDFTLTISSLQPEDFATYYCQQGYSTPLTFGGGTKVEIKR
B2: Polypeptide No. 266 (scFv, V domains shown)
VH: QVQLVQSGAEVKKPGSSVKVSCKASGYSLTELSIHWVRQAPGQGLEWMGGINPISGTANYAQKFQGRVTITADESTSTAYMELSSLRSEDTAVYYCARGTVRLNWFDPWGQGTLVTVSS
VL: EIVMTQSPATLSVSPGERATLSCRASQSVGSQLGWYQQKPGQAPRLLIYGASTRATGIPARFSGSGSGTEFTLTISSLQSEDFAVYYCQQSFSTPLTFGGGTKVEIKR
B3: Polypeptide No. 255 (scFv, V domains shown)
VH: QVQLVQSGAEVKKPGSSVKVSCKASGYTLTELSMHWVRQAPGQGLEWMGGIIPISGTVTYAQKFQGRVTITADESTSTAYMELSSLRSEDTAVYYCANKGQQLVRGYFQHWGQGTLVTVSS
VL: DIQMTQSPSSLSASVGDRVTITCQASHDIRNSVNWYQQKPGKAPKLLIYATSSLQSGVPSRFSGSGSGTDFTLTISSLQPEDFATYYCQQSYNTPFTFGQGTKLEIKR
B4: Polypeptide No. 267 (scFv, V domains shown)
VH: QVQLVQSGAEVKKPGSSVKVSCKASGYTLTSFGISWVRQAPGQGLEWVGMIIPLSGTTHYAQKFQGRVTITADESTSTAYMELSSLRSEDTAVYYCANLYGGNAYYYYGMDVWGQGTTVTVSS
VL: B3 VL with Q24R, H27Q, R30S, S32F, N34A, T51A, Y92F, N93D, F96Y
B5: Polypeptide No. 277 (scFv, V domains shown)
VH: QVQLVQSGAEVKKPGSSVKVSCKASGYTFTGYYMHWVRQAPGQGLEWMGWIDPNSGGTNYAQKFQGRVTITADESTSTAYMELSSLRSEDTAVYYCARDVDTAMVTDYWGRGTLVTVSS
VL: EIVMTQSPATLSVSPGERATLSCRASQSVDNLVGWYQQKPGQAPRLLIYDISSRATGIPARFSGSGSGTEFTLTISSLQSEDFAVYYCQQYGRSPITFGQGTRLEIKR
B6: Polypeptide No. 251 (scFv, V domains shown)
VH: QVQLVQSGAEVKKPGSSVKVSCKASGGTFSSDAINWVRQAPGQGLEWMGGIIPIVGTPTYAQKFQGRVTITADESTSTAYMELSSLRSEDTAVYYCAKGLAFGVFDGLDVWGQGTTVTVSS
VL: EIVMTQSPATLSVSPGERATLSCRASQSVSSNYLAWYQQKPGQAPRLLIYDVSTRATGIPARFSGSGSGTEFTLTISSLQSEDFAVYYCQQYGSSTLTFGGGTKVEIKR
B7: Polypeptide No. 258 (scFv, V domains shown)
VH: QVQLVQSGAEVKKPGASVKVSCKASGGTFGSYAISWVRQAPGQGLEWMGWINPNTGGAHYAQKFQGRVTMTRDTSTSTVYMELSSLRSEDTAVYYCARVGAAAGYQHWGQGTLVTVSS
VL: DIQMTQSPSSLSASVGDRVTITCRASQSIKGALAWYQQKPGKAPKLLIYSASNLQSGVPSRFSGSGSGTDFTLTISSLQPEDFATYYCQQYNSYPLTFGGGTKVEIKR
B8: Polypeptide No. 264 (scFv, V domains shown)
VH: QVQLVQSGAEVKKPGSSVKVSCKASGYTLTELSMHWVRQAPGQGLEWMGGIIPISSATSIPQKFQGRVTITADESTSTAYMELSSLRSEDTAVYYCARGALYSSSPVRVVAGTKGWFDPWGQGTLVTVSS
VL: B7 VL with S28D, K30S, G31N, A32Y, S50A, N53S, N92Y

One assay concerns the target huFLT3-M227 stably expressed on Ramos cells (human) (UniProt P36888). Kind of assay: FACS on cells.
Consider B1, for which the FACS geometric mean fold change over Jurkat parental was below 2 fold.

B2: the FACS geometric mean fold change over Jurkat parental is below 2 fold.

Turning to B3, the FACS geometric mean fold change over Jurkat parental is below 2 fold.

As to B4, the FACS geometric mean fold change over Jurkat parental was below 2 fold.

For B5, the FACS geometric mean fold change over Jurkat parental is below 2 fold.

B6: the FACS geometric mean fold change over Jurkat parental was below 2 fold.

As for B7, the FACS geometric mean fold change over Jurkat parental was below 2 fold.

As for B8, the FACS geometric mean fold change over Jurkat parental is below 2 fold.

The target of the next assay is huFLT3-T227 stably expressed on Ramos cells (human) (UniProt P36888). Kind of assay: FACS on cells.
Consider B1, for which the FACS geometric mean fold change over Jurkat parental was below 2 fold.

Turning to B2, the FACS geometric mean fold change over Jurkat parental was below 2 fold.

Turning to B3, the FACS geometric mean fold change over Jurkat parental is below 2 fold.

In the case of B4, the FACS geometric mean fold change over Jurkat parental was below 2 fold.

Turning to B5, the FACS geometric mean fold change over Jurkat parental was below 2 fold.

Turning to B6, the FACS geometric mean fold change over Jurkat parental is below 2 fold.

B7: the FACS geometric mean fold change over Jurkat parental was below 2 fold.

Take B8: the FACS geometric mean fold change over Jurkat parental was below 2 fold.
